Measurements as given in patent publication US6699677B1, “Tethered ligands and methods of use” (ChemoCentryx, Inc., priority 1999, dated 2004).

How the values were obtained:
CCR10 [1] = molecular target: T1, CCR10 (Homo sapiens, UniProt Q9NPB9); test: Spectrum of ligands that bind to CCR10; assay type: binding; parameters: Full length CCR10 expression constructs were made in pIRESpuro expression vector; expressed in transfected cells; HEK293-CCR10)
T1 sequence (Q9NPB9 1-350): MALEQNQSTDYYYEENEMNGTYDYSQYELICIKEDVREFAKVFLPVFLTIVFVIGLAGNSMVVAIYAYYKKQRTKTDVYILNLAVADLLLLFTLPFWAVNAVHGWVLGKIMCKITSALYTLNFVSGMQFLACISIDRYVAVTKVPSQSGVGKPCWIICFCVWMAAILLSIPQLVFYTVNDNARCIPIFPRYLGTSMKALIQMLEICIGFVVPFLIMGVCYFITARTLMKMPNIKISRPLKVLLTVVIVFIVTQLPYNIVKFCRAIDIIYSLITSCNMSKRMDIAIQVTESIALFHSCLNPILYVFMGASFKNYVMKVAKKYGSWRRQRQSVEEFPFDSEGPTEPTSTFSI
Excerpt: (§1) Furthermore ELC-SK mediated adhesion was abolished in the presence of soluble native ELC as a competitor (FIG. 3A, top row). […] Moreover, radiolabeled ELC was used in a traditional homologous competition assay in the presence of increasing concentrations of unlabeled ELC. […] Taken together, the stalkokine-based adhesion and radiolabeled ligand binding/homologous competition assays indicate that CCR10 is a new chemokine receptor that bound a novel compliment of chemokines.

CCR10 [2] = molecular target: T1, CCR10; test: Homologous competition binding of radiolabeled chemokine on HEK293-CCR10 cells; parameters: Full length CCR10 expression constructs were made in pIRESpuro expression vector; expressed in transfected cells; HEK293-CCR10)
Excerpt: Human, viral and murine recombinant chemokines were obtained from R&D Systems (Minneapolis, Minn.; http://cytokine.rndsystems.com/cyt_cat/cyt_cat.html). ^125I-labeled ELC and TECK were obtained from Amersham. Full length CCR10 expression constructs were made in pIRESpuro expression vector (Clontech, Palo Alto, Calif.) with a FLAG epitope tag and prolactin signal sequence, and used to generated stable transfectants in HEK293 cells. Transient and stable transfections for CCR10 and stalkokines were done using Superfect reagent (Qiagen, Valencia, Calif.) following manufacturer's protocol. Stably-transfected cells were generated by selection in 2 ug/mL puromycin for 7 days, and expression was confirmed by FACS analysis of the FLAG epitope using anti-FLAG M1 (Sigma, St. Louis, Mo.) and 2′ anti-mouse PE conjugate (Coulter Immunotech, Miami, Fla.).
as §1

wild type HEK293 cells = test: Homologous competition binding of radiolabeled ELC on wild type HEK293 cells; parameters: species or system human; details: wildtype (wt) HEK293 cells
Excerpt: as §1

CCR10 [3] = molecular target: T1, CCR10; test: Binding of CCR10-NSO cells to immobilized stalkokines; parameters: expressed in transfected cells; host or cells: not clear (NSO per the earlier reading)
Procedure: (§2) In one set of experiments, five 8 well chamber slides (Lab-Tek II, Nalge Nunc International, Rochester, N.Y.), 250 ul of 10 ug/ml anti-his antibody (R&D Systems, Minneapolis, Minn.) in PBS was added to each well and incubated at room temperature overnight (typically 16 hours). Following, the liquid in each well was aspirated and washed once for approximately 5 minutes with 500 ul of PBS. The wells were then “blocked” (blocked for any additional protein binding sites) with the addition of 250 ul of blocking solution (2% fetal bovine serum, 0.5% BSA in PBS) and incubation for 1 hour at room temp (e.g., 20° C.). The liquid in each well was aspirated and 250 ul of supernatant containing the chemokine-stalk-immobilization domain fusion proteins (SDF1a-FRAC, finetaxin-FRAC, CCL27-FRAC, 1309-FRAC, MIP3a-FRAC, ELC-FRAC, SLC-FRAC, MDC-FRAC, TARC-FRAC, or BRAK-FRAC) or the control supernatant was added to two wells. Each slide contained two wells with control supernatant (from mock-transfected cells) and two wells with the positive control SDF1a (which binds the ubiquitous chemokine receptor CXCR4). The four other wells were for experimental samples. The supernatants were incubated for one hour at room temperature (typically 20° C.), then incubated for an additional hour at 37° C. […] The slide was then ready for addition of cells for assay. […]

CCR7 = molecular target: T2, CCR7 (Homo sapiens, UniProt P32248); test: Binding of CCR7-NSO cells to immobilized stalkokines
T2 construct: host or cells: mouse myeloma NSO
T2 sequence (P32248 25-378): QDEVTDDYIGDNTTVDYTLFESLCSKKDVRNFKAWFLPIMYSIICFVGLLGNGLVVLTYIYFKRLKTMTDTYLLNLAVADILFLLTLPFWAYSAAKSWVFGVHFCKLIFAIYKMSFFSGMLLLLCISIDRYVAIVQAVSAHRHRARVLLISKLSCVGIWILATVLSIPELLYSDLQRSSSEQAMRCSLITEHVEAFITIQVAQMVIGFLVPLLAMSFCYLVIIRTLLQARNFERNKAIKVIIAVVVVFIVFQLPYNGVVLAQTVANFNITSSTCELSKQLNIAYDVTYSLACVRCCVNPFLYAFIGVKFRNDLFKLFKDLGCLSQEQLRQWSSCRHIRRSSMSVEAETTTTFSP
Procedure: as §2

Substance | Affinity of binding to CCR10 (CCR10 [1]) | Binding of radiolabeled chemokine in homologous competition with cold chemokine (CCR10 [2]) | Binding of radiolabeled ELC in homologous competition with unlabeled ELC (wild type HEK293 cells) | Binding to Stalkokine form (CCR10 [3]) | Binding to Stalkokine form (CCR7)
BLC: chemokine | lower affinity |  |  |  | 
ELC: EBl1 ligand chemokine, soluble recombinant native form | high affinity | significant binding | not | yes | yes
